Literature values, collected in paper PMC4815360.

Assays:
[1] = target: Endothelin receptor ETA (Homo sapiens) (UniProt P25101); test: radioligand
[2] = target: Endothelin receptor ETA (Rattus norvegicus) (UniProt P26684); test: radioligand
[3] = target: Endothelin receptor ETA (Rattus norvegicus) (UniProt P26684); test: radioligand binding
[4] = target: Endothelin receptor ETA (Homo sapiens) (UniProt P25101); test: saturation radioligand binding

Chain of UniProt P25101 (P25101 21-427): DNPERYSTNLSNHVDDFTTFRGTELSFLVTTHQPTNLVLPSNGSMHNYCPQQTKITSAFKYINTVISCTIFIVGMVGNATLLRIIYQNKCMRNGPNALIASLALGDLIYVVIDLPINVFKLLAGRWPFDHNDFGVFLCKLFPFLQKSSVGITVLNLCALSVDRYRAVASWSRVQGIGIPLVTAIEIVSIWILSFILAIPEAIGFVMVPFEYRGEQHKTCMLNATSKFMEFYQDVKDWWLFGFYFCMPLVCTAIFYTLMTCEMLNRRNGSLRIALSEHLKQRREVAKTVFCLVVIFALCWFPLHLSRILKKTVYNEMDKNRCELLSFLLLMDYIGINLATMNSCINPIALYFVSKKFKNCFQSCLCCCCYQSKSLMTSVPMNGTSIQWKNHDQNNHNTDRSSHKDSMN
Chain of UniProt P26684 (P26684 21-426): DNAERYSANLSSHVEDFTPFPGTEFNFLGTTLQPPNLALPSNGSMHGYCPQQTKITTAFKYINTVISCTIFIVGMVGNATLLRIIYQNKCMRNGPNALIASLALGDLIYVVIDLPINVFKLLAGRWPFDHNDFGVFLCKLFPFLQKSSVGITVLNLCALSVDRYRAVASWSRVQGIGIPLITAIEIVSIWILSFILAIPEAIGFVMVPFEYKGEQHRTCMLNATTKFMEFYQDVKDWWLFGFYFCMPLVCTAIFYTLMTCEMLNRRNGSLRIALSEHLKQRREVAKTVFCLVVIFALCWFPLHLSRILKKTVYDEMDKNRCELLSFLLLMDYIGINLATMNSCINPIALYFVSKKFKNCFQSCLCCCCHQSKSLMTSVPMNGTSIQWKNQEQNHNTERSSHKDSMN

Row | Kd [1] | Kd [2] | Kd [3] | Kd [4] | Substance
1 | 400 pM | 100 pM |  |  | Endothelin-1 (from UniProt P05305)
2 |  |  | 100 pM | 700 pM | Endothelin-2 (from UniProt P20800)
